# Laboratory results as given in the nanobody polyreactivity screen of Harvey et al. (2022).
# Assay: yeast display, Sf9 membrane polyspecificity reagent, FACS + sequencing; frameworks hold sequencing errors
# How it was run: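 After 36–48 hours of galactose induction, yeast (Saccharomyces cerevisiae BJ5465) displaying a synthetic nanobody library were stained at 4 °C for 1 hour with 10% biotinylated, detergent-solubilized Sf9 membrane reagent. Streptavidin microbeads enriched the stained cells before FACS sorting into low and high (top ~1%) gates on anti-HA and streptavidin fluorescence. Each clone's polyreactivity label reflects its gate of origin.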
row,Sequence,polyreactivity (PSR sort gate)
1,QVQLQESGGGLVQAGGSLRLSCAASGNIYPTVSMGWYRQAPGKEREFVVTIDPGSNTYYADSAKGRFTISRDNAKNTVYLQMNSPKPEDTAVYYCAVVFADWATYGYWGQGTQVTVSS,high polyreactivity
2,QVQLVESGGGLVQAGGSLRLSCAASGSTFGRYDMGSYRQAPGKERELVAAISRSGGGTYYADSVKGRFTISRDNAKNTVYLQMNSLKPEDTAVYYCAADYRDYPDSAYYYWGQGTQVTVSS,low polyreactivity
3,QVQLVESGGGLVQAGGSLRLSCAASGRTFGHYAMGWYRQAPGKERELVAAITYSGGSTYADSVKGRFTISRDNAKNTVYLQMNSLKPEDTAVYYCNKRQKGYTRSYRYIVWYDYWGQGTQVTVSS,high polyreactivity
4,QVQLVESGGGLVQAGGSLRLSCAASGRIFPFYAMGWYRQAPGKETELVAVINASGGGTYYADSVKGRFTISRDNAKNTVYLQMNSLKPEDTAVYYCAATYSPFDFYYWGQGTQVTVSS,low polyreactivity
5,QVQLVDSGGGLVQAGGSLRLSCAASGRIFYTNAMGWYIQEPGKERELVAAIDYSDSTTYYADSVKGRFTISRDNAKNTVYLQMNSLKPEDTAVYYCAAESYLYTVTFEYWGQGTQVTVSS,high polyreactivity
6,QVQLVDTGGGLVQAGGSLRLICAASGLTFSYNAMGWYRQAPGKERELVAAITVSGGRTYYADSVKGRFTISRDNAKNTVYLQMNSLKAEDTAVYYCNADYDEGYYGYLRYDYDYWGQGTQVTVSS,high polyreactivity
7,QVQLVESGGGLVQAGGRLRLSCAASGITFRSYAMGWYRQAPGKESELVAAIRSGGSTSYADSVKGRFTISRDNAKNTVYLQMNSLKPEDTAVYYCAAGGYVPLPDMTFWKFGYWGQGTQVTVSS,low polyreactivity
8,QVQIVESGGGLVQAGGSLRLSCAASGFIFWFNAMGWYRQAPGKERELVATISWSDTSTYYAVSVKGRFTISRDNAKNTVYLQMNSLKPEDTAVYYFATDASETSLPEYYWGQGTQETVSS,low polyreactivity
9,QVQLVESGGGLVQAGGSLRLTCAASGLTFNYYAMGWYRQAPGKERELVAAISSDGRTDYADSVKGRFTISRDNAKNTVYLQMNSLKPEDTAVYYCAASWYRWGKSWRQYDYWGQGTQVNVSS,low polyreactivity
10,QVQLVESGGGLVQAGGSLRLSCAASGRTFGLNGMGWYRQAPGKEREFVATITGSGTSTYYADSVKGRFTISRDNAKNTVYLQMNSLKPEDTAVYYCAALSGLWGYHYYHEYYYWGQGTQVTVSS,low polyreactivity
11,QVQLEESGGGVVQAGGSLRLSCAASGIIFYRYAMGCYRQAPGKERELVAAISKNGGRTYYADSVKGRFTISRDNAKNTVYLQMNSLKPEDTAVYYCNARYGYYLYWGQGTQVTVSS,high polyreactivity
12,QVQLVESAGGLVQEGGSLSLSCAASGITLTIYVMGWYRQAPGKEREMVAAISTSGGSTYYADSVKGRFTISRDNAKNTVYLQMNSLKQEDTAVYYCNATPLRRYYGRYLMDYWGQGTQVTVSS,high polyreactivity
13,QVQLVESGGGLVQAGGSLRLSCAASGRIFYSNVMGWYRQAPGKERELVAAITSGGSTYYADSVKGRFTISRDNAKNTVYLQMNSLKPEDTAVYYCAARVAFRPRGYIRYYYWGQGTQVTVSS,high polyreactivity
14,QVQLVESGGGLVQAGGSLRLSCAASGFIFWRYTMGWYRQAPGKERELVAVISWSGDNTYADSVKGRFTISRDNAKNTVYLQMNSLKPEDTAVYYCGVYRYDYWGQGTQVTVSS,low polyreactivity
15,QVQLQESGGGLVQAGGCLSCTASGTIFGQGDMGWSRQSPGKERELVATINDGASTYYADSVKGRFTISRDKAKNTVYLQKNSLKPDDTAVYYCAVLTDITTYFGYWGQGTQVTVSS,low polyreactivity
16,QVQLVESGGGLVQAGGSLRLICAASGSTFGFYGMGWYRQAPGKERELVASIDSRGDSTYADSVKGRFTISRDNAKKTVYVQMNSLKPEDTAVYYCAAESWYTWFDSWGQGTQVTVSS,low polyreactivity
17,QVQLVESGGGLVQAGGSLRLSCAASGRIFAAYAMGWYRQAPGKERELVATITRGGSTYYADSVKGRFTISRDNAKNTVYLQMNSLKQKDTAVYYCAVKRGFTQYKPFNYWGQGTQVTVSS,high polyreactivity
